# Measured values published in paper PMC7137328.
# B1: r-Aophytase (recombinant Aophytase; G1XN29 protein) (Orbilia oligospora ATCC 24927) (protein)
# chain: ADKFSITLPITARTSSVESDSAAVYYPSKSKYSPIFIGNDGSAETGGFHVYELYGKRSDALVKELGAYKTGRSKLVEVVYGEDRDFVVTLSMSDGMFRVFEVDGKNGVRGLKAEKLVRGDFSAMCTWKSKVGEYVYVLGKRWGYRFLVREKKGGRGVEVVQTQEFGIPIEPNSCTVSPEGKVFLAGDSGKVFSFLAVDETAAPKIVEVGELGGGDEVKGLKIYHGKKDTYLLVGLEDGIEVFDIKKLGSSLGKIQFDDEELEVGDFAVHQTSAKGYEDGSIVFAGEDGEGKFFGVSSLTPLFKALGKGKLNTKYDPRDCTDNHARPKKCANLSDCNGYGYCPKDSRDKKATCDCFPGLTGKTCNKITCPSNCTSPSHGTCTGPNICTCIPPFTGENCATLAVPARYETEESGGADGDDPAIWIHPTDKTKSRIITTVKSEVGSGLGVYDLKGKRTGGVSGGEPNNVDVLYGVEFAGRKVDLAVAACRADDTICIYEITPTGDLVTIPGGVQPLPPAVKELEKKFKVYGSCVYHSPKTGAYHIFVNSKSSLYLQFQLSATTDGKLNTTLVRHFYAGNRGQVEGCVVDDENSSLFLGEEPYGIWSYDAEPDQPAVGTLVDNTVVDGGKLHADVEGVTLVYGKTKKEGYIIVSCQGYSEYNIYQRYPPHEFVMSFSIPDNKEKGVDRVTNTDGITAVGANLGKEWPYGMVVVHDDVNEAAGGGVRADATFKIVGLGDILGNKAVKELGLLKGVDENWDPRK
# Substrate: O=P(O)(O)O[C@H]1[C@H](OP(=O)(O)O)[C@@H](OP(=O)(O)O)[C@H](OP(=O)(O)O)[C@@H](OP(=O)(O)O)[C@H]1OP(=O)(O)O
# Assay: purified protein
# Settings: 100 mM Tris-HCl pH 7.5, 50 °C, 10 min, 0.125-4.0 mM sodium phytate, printed kcat does not agree with printed Vmax and Mw
protein,measurement,value
B1,Km,1015 µM
same,kcat,13.57 s⁻¹
